In US11312781B2, “Antigen binding molecules that bind LIGHT” (Capella Bioscience Ltd., priority 2018, dated 2022):
Numbering of substitutions follows the chain as printed.

B1: 3B04: parental mouse anti-membrane LIGHT antibody, VL SEQ ID NO 1, VH SEQ ID NO 5; tested as chimeric human IgG4 mAb (antibody, listed as Homo sapiens, V domains shown)
VH: QVQLQQPGAELVRPGASVTLSCKASGYTFTDYEMHWVKQTPVHGLEWIGEIDPETGDTAYSQKFKGKATLTADKSSSTAYMEFRSLTSEDSAVYYCSRETDYFFDYWGQGTTLTVSS
VL: DIQMTQTPASLSASVGETVTITCGASENIYGALNWYQRKQGKSPQLLIYGATNLADGMSSRFSGSGSGRQYSLKISSLHPDDFATYYCQNVLTTPWTFGGGTKLEIKR
B2: 3D12: parental mouse anti-membrane LIGHT antibody, VL SEQ ID NO 41, VH SEQ ID NO 45; tested as chimeric human IgG4 mAb (antibody, listed as Homo sapiens, V domains shown)
VH: B1 VH with G26D, Y32S, M34I, D57G, S61N, F83L
VL: B1 VL with T7S, F83V, T93S

Assays:
[1] = target: T1, DcR3 binding to membrane LIGHT (EL4-LIGHT cells) (Homo sapiens, UniProt O43557); assay: Competition binding of anti-membrane LIGHT antibodies with DcR3-His on EL4-LIGHT cells; settings: mAb at up to 100 nM
T1 construct: expressed in transfected cells; host or cells: EL4 mouse lymphoma cells, stably transduced
T1 sequence (O43557 whole entry): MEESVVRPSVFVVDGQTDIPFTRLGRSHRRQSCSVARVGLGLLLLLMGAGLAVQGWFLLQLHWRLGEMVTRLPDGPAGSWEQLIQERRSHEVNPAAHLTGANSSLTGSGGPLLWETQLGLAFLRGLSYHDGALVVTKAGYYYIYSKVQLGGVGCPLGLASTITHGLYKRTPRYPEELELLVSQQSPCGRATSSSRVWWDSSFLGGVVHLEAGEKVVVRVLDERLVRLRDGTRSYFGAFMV
Procedure: DcR3 (TNFRSF6B) is a decoy receptor that competes with receptors for ligand binding. DcR3 can bind and neutralise LIGHT with high affinity and TL1A and FasL with lower affinity (Zhan C et al. Structure. 2011, 19:162-71 “Decoy strategies: the structure of TL1A:DcR3 complex”). Stably transduced LIGHT-expressing EL4 cells (mouse lymphoma cell line; EL4-LIGHT) were used for the flow cytometry-based competition-binding analysis.
EL4-LIGHT cells (0.25×10^6) were preincubated with anti-membrane LIGHT mAbs (0-300 nM) for 15 min at 4° C. followed by incubation with DcR3-His tagged (1 nM, Creative BioMart; ref:TNFRSF6B-552H, lot:962512) for 30 min at 4° C. The samples were then incubated with mouse anti-histag antibody (diluted 1:500, Biolegend, cat. no. 652502) for 30 minutes at 4° C., followed by incubation with anti-mouse APC (dil 1:500, BDBiosciences, cat. no. 550826) for 30 minutes at 4° C. The tubes were washed three times after each of the detection antibody stages and flow cytometry analysis was performed. Specific mean fluorescence intensity (MFI) obtained from the binding of DcR3-His to LIGHT on EL4 cells were used to determine the levels of competition binding.

[2] = target: T2, membrane LIGHT stably expressed on EL4 cells (Homo sapiens, UniProt O43557); assay: Binding ratio of mAbs bound to membrane LIGHT by flow cytometry (EL4 cells); settings: FIG. 7
T2 construct: expressed in transfected cells; host or cells: EL4 mouse lymphoma cells, stably transduced (Cheung et al. J. Immunol. 2009)
T2 sequence (O43557 whole entry): as above
Procedure: Stably transduced LIGHT expressing EL4 cells (mouse lymphoma cell line; EL4-LIGHT; Cheung et al. J. Immunol. 2009; 183:7286-7296) were used for the flow cytometry-based binding analysis. EL4-LIGHT cells (0.25×10^6 per well) that had been washed in were incubated with anti-LIGHT IgG4 clones (0.002-100 nM) for 30 min at 4° C. The cells were washed and anti-human IgG-APC conjugate (diluted 1:500, Biolegend cat. No. 409306) was used for detecting anti-LIGHT IgG bound on EL4-LIGHT cells.
FIG. 7 depicts the flow cytometry analysis of the anti-membrane LIGHT mAbs (3B04 and 3D12) binding to LIGHT stably expressed on EL4 cells. The maximum signal of the IgG4 mAbs 3B04 and 3D12 binding to membrane LIGHT is approximately 40000 MFI. In contrast anti-LIGHT mAbs F19 and F23 (IgG4 mAbs from EP2292663) gave a maximal signal of approximately 120000 MFI. The ratio of binding of mAb F19 and mAb F23 is approximately 3 times that of the anti-membrane LIGHT mAbs 3B04 and 3D12. […] Other mAbs of this invention; 2E08, 3A07, 3C10, 3E09 and 2B11 also bind LIGHT in a 1:1 ratio when compared to mAbs F19 and F23 by flow cytometry.

[3] = target: T3, soluble LIGHT amino acids 64-240 (Homo sapiens, UniProt O43557); assay: BIAcore (SPR) binding to soluble LIGHT 64-240
T3 construct: 64-240 LIGHT (Abcam, ab82123); purchased Abcam ab82123
T3 sequence (O43557 64-240): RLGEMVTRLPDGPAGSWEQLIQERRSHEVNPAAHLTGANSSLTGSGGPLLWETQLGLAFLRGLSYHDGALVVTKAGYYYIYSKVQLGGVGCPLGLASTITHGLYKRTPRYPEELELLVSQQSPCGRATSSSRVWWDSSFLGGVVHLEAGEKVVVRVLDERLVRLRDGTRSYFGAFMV
Procedure: Real-time binding interactions between captured antibody (chimeric anti-membrane LIGHT monoclonal antibody) captured on a biosensor matrix via goat anti-human Fc IgG and recombinant soluble LIGHT were measured by surface plasmon resonance (SPR) using the BIAcore system (GE Healthcare) according to manufacturer's instructions and standard procedures. Briefly, soluble LIGHT was diluted in HBS running buffer (GE Healthcare) and aliquots were injected through the immobilized protein matrices at a flow rate of […]. BIAevaluation software was used to calculate association rate (ka), dissociation rate (kd) and affinity (KD).
The specificity of two lead anti-membrane LIGHT mAbs to soluble LIGHT was determined by BIAcore analysis and compared to the KD calculated from the EC50 values in Table 7 (results in Table 9). In brief, mAbs 3D12, 3B04 were compared to a mAb that binds both soluble and membrane LIGHT, F19, (F19 IgG4 mAb from EP2292663). An irrelevant anti-HEL mAb, 2A11, was used as a negative control. The mAbs were captured on an anti-human Fc mAb coated chip and soluble LIGHT was passed over the surface and the kinetic parameters were calculated using BIAcore 3000 software. The soluble LIGHT preparations used were amino acids 74-240 LIGHT (R&D Systems, 664-LI-025) and 64-240 LIGHT (Abcam, ab82123).

Molecule | Inhibition of DcR3 binding to membrane LIGHT [1] | Maximum signal of binding to membrane LIGHT [2] | 64-240 LIGHT Ka [3] [M⁻¹ s⁻¹] | 64-240 LIGHT Kd [3] [s⁻¹]
B1 | only partially inhibit | approximately 40000 MFI | 251000 | 0.00345
B2 | only partially inhibit | approximately 40000 MFI | 219000 | 0.00234
